Results as given in patent US20220267751A1 (MONASH UNIVERSITY, published 2022).

B1: recombinant plasmin (enzyme)
heavy: EPLDDYVNTQGASLFSVTKKQLGAGSIEECAAKCEEDEEFTCRAFQYHSKEQQCVIMAENRKSSIIIRMRDVVLFEKKVYLSECKTGNGKNYRGTMSKTKNGITCQKWSSTSPHRPRFSPATHPSEGLEENYCRNPDNDPQGPWCYTTDPEKRYDYCDILECEEECMHCSGENYDGKISKTMSGLECQAWDSQSPHAHGYIPSKFPNKNLKKNYCRNPDRELRPWCFTTDPNKRWELCDIPRCTTPPPSSGPTYQCLKGTGENYRGNVAVTVSGHTCQHWSAQTPHTHNRTPENFPCKNLDENYCRNPDGKRAPWCHTTNSQVRWEYCKIPSCDSSPVSTEQLAPTAPPELTPVVQDCYHGDGQSYRGTSSTTTTGKKCQSWSSMTPHRHQKTPENYPNAGLTMNYCRNPDADKGPWCFTTDPSVRWEYCNLKKCSGTEASVVAPPPVVLLPDVETPSEEDCMFGNGKGYRGKRATTVTGTPCQDWAAQEPHRHSIFTPETNPRAGLEKNYCRNPDGDVGGPWCYTTNPRKLYDYCDVPQCAAPSFDCGKPQVEPKKCPGR
light: VVGGCVAHPHSWPWQVSLRTRFGMHFCGGTLISPEWVLTAAHCLEKSPRPSSYKVILGAHQEVNLEPHVQEIEVSRLFLEPTRKDIALLKLSSPAVITDKVIPACLPSPNYVVADRTECFITGWGETQGTFGAGLLKEAQLPVIENKVCNRYEFLNGRVQSTELCAGHLAGGTDSCQGDSGGPLVCFEKDKYILQGVTSWGLGCARPNKPGVYVRVSRFVTWIEGVMRNN
notes: Made by cleaving rPlg with tPA; also called rPlm; recombinant Plm

How the values were obtained:
[1] = target: T1, recombinant streptokinase from Streptococcus pyrogenes (so in the source) (Streptococcus pyrogenes (so in the source)); assay: SPR (Biacore T200), SK on Ni2+-NTA chip, 1:1 Langmuir model
T1 construct: Immobilised on a Ni2+-NTA chip; also called SK

[2] = target: T2, native plasminogen (purchased from Merck, purified from human plasma) (human, UniProt P00747 20-810); assay: SPR (Biacore T200), α2-AP on Ni2+-NTA chip, two-state reaction model, kd1; kd1, first step of the two-state model
T2 construct: mature; also called native Plg; nPlg

[3] = target: T2, native plasminogen (purchased from …); assay: SPR (Biacore T200), α2-AP on Ni2+-NTA chip, two-state reaction model; overall KD of the two-state reaction model
recombinant plasminogen = target: T3, recombinant plasminogen (human, UniProt P00747 20-810); assay: SPR (Biacore T200), α2-AP on Ni2+-NTA chip, 1:1 Langmuir model
T3 construct: also called rPlg; recombinant Plg

[4] = target: T4, native plasmin (purchased from Haematologic Technologies) (UniProt P00747 97-580; P00747 581-810, limits assumed); assay: as above
T4 construct: Plasmin has two disulphide-linked chains (heavy and light); also called native Plm

recombinant plasmin = target: B1; assay: as above
[5] = target: T2, native plasminogen (purchased from …); assay: SPR (Biacore T200), α2-AP on Ni2+-NTA chip, two-state reaction model, ka1; ka1, first step of the two-state model

| Binder | Kd [1] [pM] | koff [1] [s⁻¹] | kon [1] [M⁻¹ s⁻¹] | koff [2] [s⁻¹] | Kd [3] [pM] | Kd (recombinant plasminogen) [pM] | koff (recombinant plasminogen) [s⁻¹] | kon (recombinant plasminogen) [M⁻¹ s⁻¹] | Kd [4] [pM] | koff [4] [s⁻¹] | kon [4] [M⁻¹ s⁻¹] | Kd (recombinant plasmin) [pM] | koff (recombinant plasmin) [s⁻¹] | kon (recombinant plasmin) [M⁻¹ s⁻¹] | kon [5] [M⁻¹ s⁻¹] |
| --- | --- | --- | --- | --- | --- | --- | --- | --- | --- | --- | --- | --- | --- | --- | --- |
| B1 | 40 | 1.6e-05 | 410000 |  |  |  |  |  |  |  |  |  |  |  |  |
| recombinant alpha 2-antiplasmin (other, UniProt P08697 40-491, looked up, Serpin, immobilised on a Ni2+-NTA chip; also called α2-AP; α2AP) NQEQVSPLTLLKLGNQEPGGQTALKSPPGVCSRDPTPEQTHRLARAMMAFTADLFSLVAQTSTCPNLILSPLSVALALSHLALGAQNHTLQRLQQVLHAGSGPCLPHLLSRLCQDLGPGAFRLAARMYLQKGFPIKEDFLEQSEQLFGAKPVSLTGKQEDDLANINQWVKEATEGKIQEFLSGLPEDTVLLLLNAIHFQGFWRNKFDPSLTQRDSFHLDEQFTVPVEMMQARTYPLRWFLLEQPEIQVAHFPFKNNMSFVVLVPTHFEWNVSQVLANLSWDTLHPPLVWERPTKVRLPKLYLKHQMDLVATLSQLGLQELFQAPDLRGISEQSLVVSGVQHQSTLELSEVGVEAAAATSIAMSRMSLSSFSVNRPFLFFIFEDTTGLPLFVGSVRNPNPSAPRELKEQQDSPGNKDFLQSLKGFPRGDKLFGPDLKLVPPMEEDYPQFGSPK |  |  |  | 0.065 | 9800 | 3400 | 0.0005 | 150000 | 850 | 0.0043 | 5.1e+06 | 680 | 0.00011 | 160000 | 1.1e+06 |
